Test results reported in article doi:10.1101/419911.

Experiments:
AP2M1 160-435 = AP2M1 160-435 (UniProt Q96CW1); experiment: isothermal titration calorimetry; conditions: reference: unphosphorylated peptide YMPMS; sites S616
[1] = target: AP2M1 (residues 160-435) (human) (UniProt Q96CW1); experiment: ITC

Sequence of UniProt Q96CW1 (Q96CW1 160-435): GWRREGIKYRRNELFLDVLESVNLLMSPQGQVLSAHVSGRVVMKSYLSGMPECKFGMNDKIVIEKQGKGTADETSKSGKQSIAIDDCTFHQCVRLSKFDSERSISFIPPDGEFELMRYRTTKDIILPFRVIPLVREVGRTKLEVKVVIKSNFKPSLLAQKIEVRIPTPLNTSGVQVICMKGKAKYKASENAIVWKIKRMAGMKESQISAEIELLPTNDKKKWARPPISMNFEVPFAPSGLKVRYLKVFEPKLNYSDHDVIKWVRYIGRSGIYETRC

Row | KD (AP2M1 160-435) | Kd [1] [nM] | Substance
1 | stronger; reference 2.03 µM | – | IRS1 607-620 (from UniProt P35568) YMPMpS peptide (pS-IRS1)
2 | – | 2030 | IRS1 peptide YMPMS (unphosphorylated)
3 | – | 280 | IRS1 peptide YMPMpS (phospho-S616), pS-IRS1
